In the DeepSol protein solubility set:

Experiment: soluble on expression in E. coli; label from the status in PepcDB or PDB records

Sequence	soluble on expression in E. coli
MREIVSIHIGQAGVQIGNACWELYCLEHGITPDGLMPDDTSYGVEDQSYNTFFSETPSGKHVPRAIFVDLEPTVIDEVRTGTYAKLFHPEQLISGKEDAANNYARGHYTIGKELIDVVMDRVRRLTERCQSLQGFLIFHSFGGGTGSGFTSLVMERLSIDYGKKAKLEFSIYPAPQISTSMVEPYNSLLTTHTTLEHSDCSFIMDNEAIYEITKVNLGVRSPTYTHLNRLLAQVVSSITASLRFDGALNVDLTEFQTNLVPYPRIHFPLVTYAPIISAEKAYHEQLSVSEITNVCFEPGSQMVKCDPRNGKYMACCLLYRGDVVPKEINSAISTIKTKRAIQFVDWCPTGFKVGINYQPPTVVPGGDMAKLQRAVCMLSNTTAIQEAWARLDHKFDLMYAKRAFVHWYVGEGMEEGEFSEAREDMAALEKDYEEVGVDSFDPNDEEY	not soluble
MGSDKIHHHHHHMQRARCYLLGERAVVLELEPPMSLESQQRIWGLAERLNHHEEVLEVIPGMNNLTVLLAHPQQVALDAIERLQRWWEESESLVFDPRDIDIPVIYGGEAGPDLAEVAAHSGLTVSQVVEAHAAAQYVVYFLGFQPGFAYLGGLNEKLHMPRRAEPRLRVPEGSVGIGGAQTGIYPLATPGGWQLIGRTSLTLFNPQTMPPTLLRPGDNVRFLPQKEGVC	not soluble
MGSDKIHHHHHHMLTSRKFFPSLSSLRALEALDRLGSASAVAEELALTQSAVSRQLQTLEGQMGVELIRRDRKRLSLTPAAQDYVTEIREALNRIAQASLRLQVAPAGGTVNLAILPTFGMRWLMPRLPEFSRLHPDITINMTTRLRPFNFASEPFDAALHFGEPDWPGTDRLLLRAERVLPVCAPGLLPHGAPKSPADLLRLPLLHIQTRPRAWQDWFAQMGVTCPETLPGTLYDQFATIGQAALHGLGVALLPNYVVEQDLATGRLVAAYPDAVETLGAYYLVWPRARGNDPSLRAFRHWLAAQAEPEEGLPR	not soluble
SGEIKVSPDYNWFRSTVPLKKIIVDDDDSKIWSLYDAGPRSIRCPLIFLPPVSGTADVFFQQILALTGWGYRVIALQYPVYWDHLEFCDGFRKLLDHLQLDKVHLFGASLGGFLAQKFAEYTHKSPRVHSLILCNAFSDTSIFNQTWTANSFWLMPAFMLKKIVLGNFSSGPVDPMMADAIDFMVDRLESLGQSELASRLTLNCQNSYVEPHKIRDIPVTIMDIHLLQFHGTKYAAIDPSVVSAEELDVQKGQLDLSQEEP	soluble
MVEIIDTTFRDAHQSLIATRMSTKDMLPIAEKMDKIGFYSMEVWGGATFDVSLRFLREDPWERLKLLREHIRKTKLQMLLRGQNLVGYRHYPDDVVEKFVELAYKNGIDIFRVFDALNDVRNMKTAIKKAKEIGAEVQGAICYTTGPIFTIDYYLQKVDELIELDVDYITIKDMAGLADPQTAYELVKEIKERYGIKVNFHTHATSGLAVATYLKAVEAGVDYIDTSIYPLAGGTAQPAVQTMYYALPKGKRPKLNIKLIHEISKYLTNLLEKKYDHLLTKKAIHGDPNVLIHQIPGGMYSNLIKQLSELKALDKLEEVLEEVPRVREDLGYPPLVTPTSQIVGVQAVLNVLFGRYKQVTKETKDYVRGLYGRPPGKIKEEIKKLILGDEEPINVRPADLLEPMLEKAKKELKEKGYLEKEEDVVTYCLFPQVALEFFELRRQGRLRPVEEKPKGKPIKIYINGKEFEVFVEGIEFEPPKPKPQVQAIPSQPPKREVVAPSGSVVSAPMPGKVLRVLVRVGDRVRVGQGLLVLEAMKMENEIPSPRDGVVKRILVKEGEAVDTGQPLIELE	soluble
MAHHHHHHMCKDKNEKKNYEHVNANEKNGYLASEKNELTKNKVEEHTYDYDYVVIGGGPGGMASAKEAAAHGARVLLFDYVKPSSQGTKWGIGGTCVNVGCVPKKLMHYAGHMGSIFKLDSKAYGWKFDNLKHDWKKLVTTVQSHIRSLNFSYMTGLRSSKVKYINGLAKLKDKNTVSYYLKGDLSKEETVTGKYILIATGCRPHIPDDVEGAKELSITSDDIFSLKKDPGKTLVVGASYVALECSGFLNSLGYDVTVAVRSIVLRGFDQQCAVKVKLYMEEQGVMFKNGILPKKLTKMDDKILVEFSDKTSELYDTVLYAIGRKGDIDGLNLESLNMNVNKSNNKIIADHLSCTNIPSIFAVGDVAENVPELAPVAIKAGEILARRLFKDSDEIMDYSYIPTSIYTPIEYGACGYSEEKAYELYGKSNVEVFLQEFNNLEISAVHRQKHIRAQKDEYDLDVSSTCLAKLVCLKNEDNRVIGFHYVGPNAGEVTQGMALALRLKVKKKDFDNCIGIHPTDAESFMNLFVTISSGLSYAAKGGCGGGKCG	soluble
MKTSSASKSHYTGQFPQGDLQPKTPIPVGRNSEIPKDAALSAQLKGLRPLDRKPSKMPTSSSDLQAVNKMIAENRSNDVGKGQFLLSTQSLGSAERVDSQNYHSRNESGKAPLFFSEFATEKPSLQSVKSLSQGKQDYYAVRHVGKRGRDLFTDEPIEGENSKLGRLKTSPLLSTQSQGTRAIRAFAATATIDKSRGEYVARLHRHVVEALGDEGGVVHLLRPTRDHYAEDSTLNFFTFCEQTELASSLNSLEAISAKKEDRKPIVFTDHKSLVGLSRTSRTEASPIGRLVQQPYFVTSDLKRGDKVVITDDHIQAGGSMLAMEAAAKEAGVDVLALATLSAHPFSPQLTMSSEVSAFLDETLAAWDPQGKVTERLAAIGMPREKLTNSEAMILIAYAIDPASDSAILRFESIQNNLFKRAHLHNVGIDPDAPDTLEQMQKLSSMQEMAGTDSARHFVDDAKVLEGEHDSLIPILKMKPASP	not soluble
MKLVLAVIQDADAAALMRALSEQHFEATKLASTGGFLREGNTTLMIGVDDQRLDTLRTLIGQTCRSRTRLVPARGLVSESEGGVAQEPVEVPVGGAVIFVLGVEDFVKV	not soluble
MSLMSSKPIYKRVLLKASGEALMGDQGFGIDVAVADRIASDIAEARAMGVEVGVVVGGGNIFRGVAVASKGGDRVTGDHMGMLATVINALALATSLRKLSIDTVVLSAIAMPEICESFSQRAALHHLAQGRVVIFAGGTGNPFFTTDSAAALRAAEMGAEAIFKGTQVDGIYSADPKKDPTATRFDELTHSEVLGKGLAVMDIAAVALARENHIPIIVFSIHEKGGFAQILTGGGRKTIVHDKEGHHHHHH	soluble
SLRLKISLLSPADSFEIDLNHSYHLASAIYRAIERADPSLSIELHKPDVPKFFTFSKLFIPKRKFRIEGEKMVSDCEEAYFFFSTLRNEVAASLVEGLLSKPEIRICGVDFIVSEVSVLPEREVKGREKFVTLSPIYASTSVGENGRRRIFDLYPKDSKFYEVILQNLVKKYVLYYKSAPENLDFHMKPLNVKAKRIRLKDTFHRCVEMVFKAEGSPELLDVGYKAGFGSKNSMGFGMVKVV	soluble
MAGLKRRASQVWPEEHGEQEHGLYSLHRMFDIVGTHLTHRDVRVLSFLFVDVIDDHERGLIRNGRDFLLALERQGRCDESNFRQVLQLLRIITRHDLLPYVTLKRRRAVCPDLVDKYLEETSIRYVTPRALSDPEPRPPQPSKTVPPHYPVVCCPTSGPQMCSKRPARGRATLGSQRKRRKSVTPDPKEKQTCDIRLRVRAEYCQHETALQGNVFSNKQDPLERQFERFNQANTILKSRDLGSIICDIKFSELTYLDAFWRDYINGSLLEALKGVFITDSLKQAVGHEAIKLLVNVDEEDYELGRQKLLRNLMLQALPLEHHHHHH	not soluble
MSWQAYVDTSLLGTGKIDRAAIVSRAGDSVWAASAGFNLSPQEIQGLAAGFQDPPSMFGTGIILAGQKYITIRAEGRSIYGKLQKEGIICVATKLCILVSHYPETTLPGEAAKITEALADYLVGVGY	soluble
MSLRKFMVLGYGEIGKLAIKHLLSHKVECIYLIVRDKSKASDLEGEIVEVLDFNEKNQVINEIDCIVSCTAAPHTVVRNEDIKTEGETIHIYDLAVPRDVDKELSEKERVILKDIDEISKIDDKNKKIRKERMEEYKHIVEESIDEFLNWLKIREVSSKIRNIKIRENEICSERIKTFSNKGNGENAKLAERMIKSTADAYVNRAIELLKSEALKGSDSYCAEIIEKIFLTEGHHHHHH	not soluble
MLRREFGPKYTAKINEAEENWQARAEAIKKGKKQNTWDLFEERGYVKDTAGTKEHIAELMRTRRIGAYVGIDPTAPSLHVGHLLPLMPLFWMYLEGYKAFTLIGGSTAKIGDPTGRLKSRDHLSSSDATMNMTKIHYQLKKLWENVDTQMRARGYEADWARKRGIVNNNHWWNKQPMLEVLRRVGHALRIGPMLSRDTVKNKMTQGDGVSFAEFTYPIMQGWDWFELFYQQGVQMQIGGSDQYGNIISGLEVVKAARESEPDPQERKYVTPKTALDECVGFTVPLLTDSSGAKFGKSAGNAIWLDPYQTSVFDFYGYFVRRSDQEVENLLKLFTFMPISEITKTMEEHIKDPSKRVAQHTLAREVVTLVHGKQEASAAEDQHRMMYTGQMTI	soluble
MPVRKAKAVWEGGLRQGKGVMELQSQAFQGPYSYPSRFEEGEGTNPEELIAAAHAGCFSMALAASLEREGFPPKRVSTEARVHLEVVDGKPTLTRIELLTEAEVPGISSEKFLEIAEAAKEGCPVSRALAGVKEVVLTARLV	soluble
MQEQLEKMFFLSAEFVEAVDARGMTEREKNVFFDTELFCKRYVKEVRPGEIGCTLSHQKCYRKLVESRDKYALILEDDIVIRHNIDTLVPEIEKLLNTDEPRVILLSGWYWYLGTKTIKQHYCLARVYDAFLTHAYIINREAASLLIEQRPFITADDWFYIRKKGVKLYAVLPHLLDQDWSGEYPTSINQEEKKRCPGLWKRKIEICFHSLLLKFLYIIKRFEKALEHHHHHH	not soluble
GPGSMSSEHGEILRLWEKLRTIEDRTEEQVAMPSSKKTAYAHKYPMVDKLMHLIEPKFANLVRTPSVSRVVQSMIKYGSAEQVNRLLKWVSKDFSTYATDAYAHFVVCALVRHVPHEAYSKLMTHVIPSVPQLVAHKFGIEVLHSVYSSRWCSPADRSLLLLAVFKDNVAVMRRWPGYPEVEAVLKKNPSLQRRLLSRLFDLSDKLVSQKEAIGYPFVQRLVGTYVRCGTRDEVSELCDTLRPHITAISATREGAPLASLAFSLTEPKKRKEVLHSFNAQLGELCTSKYAAPVIARLFDLLYDAQMLRKYVASDLAEHIGQVVNSPYGYQILMHLLTPHEERKRRFLLPNWQEHNLFSMENKEWNHHTWLTPAFVPETVEICSKPAVTSHLAALPMLVKAFLQYVTDEAHSAKLNRHHAALIAREVLHVVQHEPLYKAAIQLSEDEEHALSKLAPAHGKREREDAAGEVETYAAAPTKCPKRENGSQKAAALTPADKRKKTKVPTVISAAAPLEGRRVKTDAKKRVKKS	soluble
MPLYVIDKPITLHILTQLRDKYTDQINFRKNLVRLGRILGYEISNTLDYEIVEVETPLGVKTKGVDITDLNNIVIINILRAAVPLVEGLLKAFPKARQGVIGASRVEVDGKEVPKDMDVYIYYKKIPDIRAKVDNVIIADPMIATASTMLKVLEEVVKANPKRIYIVSIISSEYGVNKILSKYPFIYLFTVAIDPELNNKGYILPGLGDAGDRAFG	soluble
FEELAKQIKLAKTPRLLISLKAEVPMAIGWLKPVVLLPASMVTGLNAAQLEMLILHELAHIRRHDYLVNFLQTLIELLFFFHPSVHWIGKQMRNEREYCSDDIAVQHCGDAIAYAHTLTDTASLCAKNHFHTIPTMAMAASGGDL	not soluble
